# From PMC314469, “Protein Interaction Networks by Proteome Peptide Scanning” (PLoS Biology, 2004)
# T1: Boi1 SH3 (BOI1_YEAST), P38041
# T1 chain: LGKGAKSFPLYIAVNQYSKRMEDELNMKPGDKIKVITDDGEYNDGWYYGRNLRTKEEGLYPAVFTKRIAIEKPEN
# T2: Yfr024 SH3 (LSB3_YEAST), P43603
# T2 chain: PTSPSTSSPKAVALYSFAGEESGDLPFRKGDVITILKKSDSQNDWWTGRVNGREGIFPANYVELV
# T3: Boi2 SH3 (BOI2_YEAST), P39969
# T3 chain: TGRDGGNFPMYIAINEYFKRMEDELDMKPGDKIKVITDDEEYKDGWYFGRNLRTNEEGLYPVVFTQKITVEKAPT
# T4: Yhr016c SH3 (YSC84_YEAST), P32793
# T4 chain: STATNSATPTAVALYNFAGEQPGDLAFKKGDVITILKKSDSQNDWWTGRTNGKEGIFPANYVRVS
# T5: Rvs167 SH3 (RV167_YEAST), P39743
# T5 chain: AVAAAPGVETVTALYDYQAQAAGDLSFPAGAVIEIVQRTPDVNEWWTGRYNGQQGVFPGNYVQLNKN
# Legend:
# Assay in all cases: SPOT array
# [1] = biological target: T1, Boi1 SH3 (BOI1_YEAST), P38041
# [2] = biological target: T2, Yfr024 SH3 (LSB3_YEAST), P43603
# [3] = biological target: T3, Boi2 SH3 (BOI2_YEAST), P39969
# [4] = biological target: T4, Yhr016c SH3 (YSC84_YEAST), P32793
# [5] = biological target: T5, Rvs167 SH3 (RV167_YEAST), P39743
"normalised SPOT signal, Boehringer light units (BLU); mean over the file's lines of this peptide [1]","normalised SPOT signal, Boehringer light units (BLU); mean over the file's lines of this peptide [2]","normalised SPOT signal, Boehringer light units (BLU); mean over the file's lines of this peptide [3]","normalised SPOT signal, Boehringer light units (BLU); mean over the file's lines of this peptide [4]","normalised SPOT signal, Boehringer light units (BLU); mean over the file's lines of this peptide [5]",Binder
138,6.2,156,0,53.2,PKDPSSPQRDEILT [YBR271W 27-40]
170,866,40.1,164,25,PNSPTPPLKSKVSR [YER164W 1337-1350]
127,996,147,178,138,PMSPGPPSKKDSRH [YJL005W 495-508]
110,289,1.8,204,29.4,PRGPLSPKKHVLPI [YPR107C 47-60]
80.6,504,21,140,30.2,PLPPIPPTKSKTSP [YHL007C 535-548]
104,34.7,71.5,258,52.4,PNEPGAPSRLSFEN [YBL067C 285-298]
227,38000,28.3,39200,5510,PKEPRLPKRKVAVM [YPL212C 67-80]
91.7,861,34.5,128,57.3,PLQPRPPVKPLSKQ [YGR084C 87-100]
94.5,200,48.5,205,42.7,PLIPDNPGRLLSSK [YEL023C 311-324]
104,60.6,7.9,52.8,20.4,PIQPQEPFRHNTTI [YNL085W 152-165]
82.1,2930,37.8,62.5,40.5,PPPPPVPAKLFGES [YNL271C 1244-1257]
563,6880,50.2,2480,1520,PPPPPPPSRKSGTP [YDL146W 477-490]
31.6,26100,87.6,24900,5510,PIMPTLPPRPYITI [YGL060W 537-550]
14300,1610,775,391,391,PQLPKSPSRYSLSR [YKL101W 622-635]
91,218,49,181,18.5,PRRPNEPGKGMKWR [YNL068C 402-415]
46.1,41.3,26.2,66.6,23.8,PPEPATPSKKSLTT [YBR060C 169-182]
628,7410,33300,5170,34500,PIVPREPLRNEPTD [YPL255W 118-131]
60,1030,58,100,36.6,PPPPPPPPKPPLND [YMR089C 156-169]
68.6,87.1,76.3,260,12.5,PNYPDSPPKVTFIS [YGL087C 66-79]
1230,29400,753,6150,1660,PPVPKAPSRRSSSL [YER132C 943-956]
72.7,2050,37.5,545,124,PPLPPIPTRDDMSN [YNL152W 329-342]
87.2,2650,59.6,1710,332,PQGPGIPPRTYEAS [YPL084W 769-782]
